Data set [1] relates to CIL-6A6-1 (DNA, G4, circular (5' and 3' ends ligated)) ATCTCGACTAGTCAGTGGTGGATATGGGGAGGCTGTGGTGAGGGTATGGTTGTCTCGGATTGGTTGTCTCGGAT
As to the kind of experiment: fluorescence enhancement.

For data set [2], the system named is AIR-3A (RNA, G4) GGGGAGGCUGUGGUGAGGG
As to the kind of experiment: fluorescence enhancement.

The test system of data set [3] is CIL-6A6-1A (DNA, G4, circular) ATCTCGACTAGTCAGTGGTGGATATGTGCACACTGTTGTGAACGTATGGTTGTCTCGGATTGGTTGTCTCGGAT
As to the kind of experiment: fluorescence enhancement.

The target of data set [4] is T1, sIL-6R (soluble IL-6 receptor alpha) (human, UniProt P08887 20-355). As to the kind of experiment: pull-down, real-time PCR; 1x PBSMT pH 7.2: 137 mM NaCl, 2.68 mM KCl, 8.1 mM Na2HPO4, 1.76 mM KH2PO4, 1 mM MgCl2, 0.025% Tween-20; pull-down 1 h (room temperature in SELEX); MST at 25 C. The conditions noted are these: protein: commercial; circular.
T1 sequence (P08887 20-355): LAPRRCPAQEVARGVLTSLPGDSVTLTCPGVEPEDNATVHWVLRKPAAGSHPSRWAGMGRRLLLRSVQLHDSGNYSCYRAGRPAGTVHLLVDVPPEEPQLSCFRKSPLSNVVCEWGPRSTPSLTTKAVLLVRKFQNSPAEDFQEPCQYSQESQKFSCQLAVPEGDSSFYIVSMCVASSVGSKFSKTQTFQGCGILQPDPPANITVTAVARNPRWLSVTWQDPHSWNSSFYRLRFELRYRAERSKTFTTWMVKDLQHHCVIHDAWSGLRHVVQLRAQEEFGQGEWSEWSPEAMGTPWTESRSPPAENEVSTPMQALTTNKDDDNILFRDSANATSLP
The target of data set [5] is T2, IL-6 (interleukin-6) (human, UniProt P05231 30-212). The data set is described as above. The conditions noted are these: protein: commercial; circular.
T2 sequence (P05231 30-212): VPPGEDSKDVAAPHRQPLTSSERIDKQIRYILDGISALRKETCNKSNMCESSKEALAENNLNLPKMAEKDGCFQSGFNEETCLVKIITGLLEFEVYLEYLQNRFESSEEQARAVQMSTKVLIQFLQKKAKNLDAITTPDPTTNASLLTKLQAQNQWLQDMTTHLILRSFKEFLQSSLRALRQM
The target in data set [6] is T1, sIL-6R (soluble IL-6 receptor alpha). As to the kind of experiment: pull-down, real-time PCR; smaller Kd than CIL-6A; value only in figure; 1x PBSMT pH 7.2: 137 mM NaCl, 2.68 mM KCl, 8.1 mM Na2HPO4, 1.76 mM KH2PO4, 1 mM MgCl2, 0.025% Tween-20; pull-down 1 h (room temperature in SELEX); MST at 25 C. The following applies: protein: commercial; circular; two putative antiparallel G4 motifs.

Data set [7] concerns the target T2, IL-6 (interleukin-6). The description is as above. The conditions noted are these: protein: commercial; circular; two putative antiparallel G4 motifs.
Data set [8] has as its target T1, sIL-6R (soluble IL-6 receptor alpha). As to the kind of experiment: MST; 1x PBSMT pH 7.2: 137 mM NaCl, 2.68 mM KCl, 8.1 mM Na2HPO4, 1.76 mM KH2PO4, 1 mM MgCl2, 0.025% Tween-20; pull-down 1 h (room temperature in SELEX); MST at 25 C. The following applies: protein: commercial.
In data set [9] the target is T2, IL-6 (interleukin-6). The description is as above. The conditions noted are these: protein: commercial; linear.
In data set [10] the target is T1, sIL-6R (soluble IL-6 receptor alpha). As to the kind of experiment: pull-down, real-time PCR; fully functional; 1x PBSMT pH 7.2: 137 mM NaCl, 2.68 mM KCl, 8.1 mM Na2HPO4, 1.76 mM KH2PO4, 1 mM MgCl2, 0.025% Tween-20; pull-down 1 h (room temperature in SELEX); MST at 25 C. The conditions noted are these: protein: commercial; circular.
The target of data set [11] is T2, IL-6 (interleukin-6). The description is as above. The following applies: protein: commercial; circular.
For data set [12], the target named is T2, IL-6 (interleukin-6). As to the kind of experiment: pull-down, real-time PCR; affinity largely retained; 1x PBSMT pH 7.2: 137 mM NaCl, 2.68 mM KCl, 8.1 mM Na2HPO4, 1.76 mM KH2PO4, 1 mM MgCl2, 0.025% Tween-20; pull-down 1 h (room temperature in SELEX); MST at 25 C. The conditions noted are these: protein: commercial; circular.
[13] abbreviates: order of intensities similar to ThT.

Positions count from the first letter of the chain named.

As to `CCc1c(C)c2cc3nc(cc4nc(cc5c(CC)c(C)c(cc1[nH]2)n5C)C(C)=C4CCC(=O)O)C(CCC(=O)O)=C3C`, the binding entry is recorded as “yes” in [1] (fluorescence decreased by added 50 and 100 mM Li+); “yes” in data set [2] (setting [13]); “yes” in [3] (setting [13]). In the case of `Cc1ccc2c(c1)sc(-c1ccc(N(C)C)cc1)[n+]2C`, the binding entry in data set [1] (excitation 425 nm, highest intensity of the five sequences) was “yes”; in data set [2] (excitation 425 nm, second highest intensity, with or above CIL-6A6-1A), “yes”; in data set [3] (excitation 425 nm, intensity below CIL-6A6-1), “yes”.

B1: CIL-6C (ssDNA)
DNA: ATCTCGACTAGTCATATGGTGTAGATCCTTGGGGAGGCTGTGGTGAGGGGGTTGAAGGTAGTTGCTCGTTGTCTCGGAT
modifications: circular
In the case of B1, the binding result (in data set [4]; with IL-6 (interleukin-6) [5]) was “binds” throughout.

B2: CIL-6D (ssDNA)
DNA: ATCTCGACTAGTTAGACGCTACGTGCGGATGGGGAGGCTGTGGTGAGGGTTGGTGTTCTCGGATGATGGTGTCTCGGAT
modifications: circular
On to B2, for which the binding result in data set [4] is listed as “binds”.

B3: CIL-6B (ssDNA)
DNA: ATCTCGACTAGTCAGGTGTTGTAATGGTAAGGGGAGGCTGTGGTGAGGGTTGGTTGTCACGGATAGTTGTGTCTCGGAT
modifications: circular
Turning to B3, the binding result in [4] is recorded as “binds”.

B4: CIL-6A6-1 (structured_DNA)
DNA: ATCTCGACTAGTCAGTGGTGGATATGGGGAGGCTGTGGTGAGGGTATGGTTGTCTCGGATTGGTTGTCTCGGAT
modifications: circular
On to B4, for which the Kd in data set [6] is under 6.9 nM; in the data set with IL-6 (interleukin-6) [7] it was under 8.5 nM.

B5: IL-6A6-1 (linear form of CIL-6A6-1) (ssDNA)
DNA: B4 DNA
modifications: linear
As for B5, the binding result (in data set [8] (linear); in the data set with IL-6 (interleukin-6) [9]) was “no binding” in each case.

B6: CIL-6A46 (ssDNA)
DNA: ATCTCGACTAGTCAGGGATATGGGGAGGCTGTGGTGAGGGTATGGTTGTCTCGGATTGGTTGTCTCGGAT
modifications: circular
As for B6, the binding result (in [4]; with IL-6 (interleukin-6) [5]) was “binds” throughout.

B7: CIL-6A4-1 (ssDNA)
DNA: ATCTCGACTAGTCAGGGATACCGGATGGGGAGGCTGTGGTGAGGGTATGGTTGTCTCGGATTGGTTGTCTCGGAT
modifications: circular
Regarding B7, the binding result (in data set [4]; with IL-6 (interleukin-6) [5]) was “binds” in each case.

B8: CIL-6A-R (ssDNA)
DNA: ATCTCGACTATTTTTTTTTTTTTTTTTTTTGGGGAGGCTGTGGTGAGGGTTTTTTTTTTTTTTTTTTTTTGTCTCGGAT
modifications: circular
As to B8, the binding result with IL-6 (interleukin-6) [5] is listed as “no binding”.

B9: CIL-6A (ssDNA)
DNA: ATCTCGACTAGTCAGTGGTGGATACCGGATGGGGAGGCTGTGGTGAGGGTATGGTTGTCTCGGATTGGTTGTCTCGGAT
modifications: circular (5'-3' ligated)
As for B9, the Kd was determined as 6.9 nM in data set [4] and 8.5 nM with IL-6 (interleukin-6) [5].

B10: CIL-6A6 (ssDNA)
DNA: B9 DNA with C25T, C26T, G27T, G28T, A29T
modifications: circular
As for B10, the binding result (in data set [10]; with IL-6 (interleukin-6) [11]) was “binds” each time.

B11: CIL-6A4 (ssDNA)
DNA: B9 DNA with G17T, G18T
modifications: circular
For the molecule B11, the binding result (in data set [10]; in the data set with IL-6 (interleukin-6) [11]) was “binds” throughout.

B12: AIR-3A (structured_RNA)
RNA: GGGGAGGCUGUGGUGAGGG
In turn, B12 showed an equilibrium dissociation constant (Kd) in [8] (G4, 2-tiered) of 67.5 nM. That is a double-digit nanomolar value.

B13: CIL-6A-C (ssDNA)
DNA: ATCTCGACTAGTCAGTGGTGGATACCGGATTTTTTTTTTTTTTTTTTTTTATGGTTGTCTCGGATTGGTTGTCTCGGAT
modifications: circular
Take B13: the binding result is recorded as “no binding” in [4] and “binds” in the data set with IL-6 (interleukin-6) [12].
